Results on 1 substance are retold here after PMC8165646.

The assay has as its target HA-tagged mutant (Leu15) AP2σ2 subunit (human) (human) (UniProt P53680). Put plainly: co-IP; lysates of HEK293 cells stably expressing FLAG-CaSR with HA-tagged WT or Leu15 AP2σ2; anti-HA-sepharose beads 2 h; blots with anti-AP2α, anti-AP2β2 and anti-AP2μ2 for the endogenous subunits; lysis buffer 0.5% NP40, 135 mM NaCl, 20 mM Tris pH 7.5, 1 mM EDTA.

On to “AP2α subunit, endogenous in HEK293 (from UniProt O95782 1-977) (natural protein)”, for which the reduction of the subunit in the HA-AP2σ2 immunoprecipitate, Leu15 cells against WT cells is more than 50%.
